Paper PMC11626169

B1: NST3 promoter Probe 1 (dsDNA)
DNA 1: CATGACATTACACGTCAAAAGAAATATGTCTTACGTCAGAACTTACGTAT
DNA 2: ATACGTAAGTTCTGACGTAAGACATATTTCTTTTGACGTGTAATGTCATG
B2: NST3 promoter Probe 2 (dsDNA)
DNA 1: AATTAACATGGTAGAATGTAGATGACGTAGATCATGAAACGAGTGTGTGA
DNA 2: TCACACACTCGTTTCATGATCTACGTCATCTACATTCTACCATGTTAATT

Target: T1, GST-HY5 (Arabidopsis thaliana, UniProt O24646 1-168)
T1 sequence: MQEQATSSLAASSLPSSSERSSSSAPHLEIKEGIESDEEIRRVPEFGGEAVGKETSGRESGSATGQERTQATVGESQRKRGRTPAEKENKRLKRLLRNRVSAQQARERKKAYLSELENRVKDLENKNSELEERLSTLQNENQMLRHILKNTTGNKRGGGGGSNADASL
Assay: EMSA

Row | Binder | binding result
1 | B1 | binds
2 | B2 | binds
